Test results as given in the nanobody polyreactivity screen of Harvey et al. (2022).

Assay: yeast display, Sf9 membrane polyspecificity reagent, FACS + sequencing; frameworks hold sequencing errors
Procedure, shortened: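 Nanobodies from a synthetic yeast display library (Saccharomyces cerevisiae BJ5465), induced 36–48 hours with galactose, were stained 1 hour at 4 °C with 10% biotinylated, detergent-solubilized Sf9 membrane reagent, enriched on streptavidin microbeads, then FACS-sorted. Anti-HA (expression) and streptavidin (reagent binding) fluorescence set low and high (top ~1%) gates. Polyreactivity labels come from the gate of origin. Genes were colony-PCR amplified, MiSeq 2 × 250 sequenced and filtered by CDR length.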

| Sequence | polyreactivity (PSR sort gate) |
| --- | --- |
| QVQLVESGGGLFQAGGSLRISFAASGRIFGVNAMGWYRQAPGTQSELVAAISAGGGNTYYADSVKGRFTISRDNAKNTVYLQMNRLKPEDTAVYFCNVQRSLRMDFWGQGTQVTVSS | high polyreactivity |
| QVQLVESGGGLFQAGGSLRISSAPSGRTYYRNAMGWYRQAPGIERELVAAISWSGGRTYYADSVKGRFTISRDNAKNTVYLQMNSLKPEDSAVYYCAALFIYRSYAALSRYDYWGQGTQVTVSS | high polyreactivity |
| QVQLVESGGGLFQAGGSLRLSCAASGFIFGLYAMGWYRQAPGKEREFVAAISTSSGITYYADSVKGRFTISRDNAKNTVYLQMNSLKPEDTAVYDCAARGHYYDYWRQGTQVTVSS | low polyreactivity |
| QVQLVESGGGLFQAGGSLRLSCAASGFIFYYNTMGWYRQAPGKERELVAAISSGGRTYYADSVKGRFTISRDNAKNTVYLQMNSLKPEDTAVYYCNVVTYVKYGCWGQGTQVTVSS | high polyreactivity |
| QVQLVESGGGLFQAGGSLRLSCAASGFTFPHYMGWYRQAPGKERELVAAINVSGGSTSYADSVKGRFSISRDNAKNTVYLQMNSLKPEDTGVYFCAKDLRFRLFSYPSDYWGQGTQVTVSS | low polyreactivity |
| QVQLVESGGGLFQAGGSLRLSCAASGFTFVDYAMAWYRQAPGKERELVAAITVSGDSTYYADSVKGRFTISRDNAKNTVYLQMNSLKRADTAFYYCAADPGYYYGGYWGQGTQVTVST | low polyreactivity |
| QVQLVESGGGLFQAGGSLRLSCAASGFTPGNVRGCYRQAPGKERELVAAISWSADSTYYADSVKGRFTISRDNAKNTVNLQMKSLKREDSAVYYCSADGVPGRAVDYEYWRQGTQVTVSS | high polyreactivity |
| QVQLVESGGGLFQAGGSLRLSCAASGGIFVDNAMGWYRQAPGKERELVAAISWSGGSTYYADSVKGRFTISRYHAKNTVYLQMNSLKPEDTAVYYCAKVYVEDEGYQWADYDYWGQGTQVTVSS | low polyreactivity |
| QVQLVESGGGLFQAGGSLRLSCAASGGTFPYNAMGWYRPAPGKERELVATISFTDGSTYYADSVKGRFTLSRYIAKNTVYLQMNSLKPEDTAVYYCAKDYYRPGMDYWGQGTQVTVSS | low polyreactivity |
| QVQLVESGGGLFQAGGSLRLSCAASGIIFYHYAMGWYRQAPGKERELVAAITRSGSRTYYADSVKGRFTISRDNAKNTVYLQLNSLKPEDTAVYYCAYRRRWYGIRNYYWGQGTQVTVSS | high polyreactivity |
| QVQLVESGGGLFQAGGSLRLSCAASGISFWSYDMGWYRQAPGKERELVAAISRGGESTYYADSVKGRFTISRDLAKNTVYVQMNSLKPEDTAVYYCPALRPREEYYWGQGTQVTVSS | high polyreactivity |
| QVQLVESGGGLFQAGGSLRLSCAASGITFERYTMGWYRQAPGKERELVAAIRGSGGTYYADSVKGRFTISRENAKNTVYLQMNSLKPEDTAVYYCNAVLWVYYHWPYDYWGQGTQVTVSS | high polyreactivity |
| QVQLVESGGGLFQAGGSLRLSCAASGLIFRPYAMAWSRQAPGTERELVAAIRGSGGRTYYADSVKGRFTISRDNEKNTVYLQMNSLKPEDTAVYYCAVDVGRHTGYYYWGQGTQVTVSS | high polyreactivity |
| QVQLVESGGGLFQAGGSLRLSCAASGRIFGAYTKRSYRQAPGKERELVAAITGRGGGTYYADSVKGRFTISRDNAKNTVYLQMNSLKPEDTAVYYCNVKLYYYYFRMYYWGQGTQVTVSS | low polyreactivity |
| QVQLVESGGGLFQAGGSLRLSCAASGRIFGDNGMGWYRQAPGKERELVTYADSVKGRFTISRDNAKNTVYLQMNSLKPEDTAVYYCNKDPPRLSGLDENYWGQGTQVTVSS | low polyreactivity |
| QVQLVESGGGLFQAGGSLRLSCAASGRIFGIYAMGWYRQAPGKERELVAAITRGSTYYADSVKGRFTISRDNAKNTVYLQMNSLKPEDTAVYYCNARPRVPGVLYLYDYLGQGTQVTVSS | high polyreactivity |
| QVQLVESGGGLFQAGGSLRLSCAASGRIFQYHAMGWYRQAPGKERELVAAIRRGRGSTYYADSVKGRFTISRDYAKNTVYLQMNSLKPVDTAVYYCAARRKRVSFYPEYDFWGQGTQVTVSS | low polyreactivity |
| QVQLVESGGGLFQAGGSLRLSCAASGRIFWNYAMGWYRQAPGKERELVASINWSGGSTYYADSVKGRFTISRDNAKNTVYLQMNSLKPEDTAVYYCNKDGRVYLDHDYWGQGTQVTVSS | low polyreactivity |
| QVQLVESGGGLFQAGGSLRLSCAASGRIYRFYAMGWYRQAPGKERELVAAISASGGSTYYADSVKGRFTSSRDNAKNTVYLQMISLKPEVTAVYYCAAYSWGGGYYWGQGTQVTVSS | high polyreactivity |
| QVQLVESGGGLFQAGGSLRLSCAASGRTFNFNVMGWYRQAPGKERELVAAMSKSTGSTFYADSVKGRFTISRDNAKNTVYLQMNSLKPEDTAGYYCAAKPSRSLYYYWGQGTQVTVSS | high polyreactivity |
| QVQLVESGGGLFQAGGSLRLSCAASGRTFRTNAMGWYRQAPGKERELVAAITRSGGSTYADSVKGRFTISRDNAKNTVYLQMNSLKPEDTAVYYCATTRDWVYNYWGQGTQVTVSS | low polyreactivity |
| QVQLVESGGGLFQAGGSLRLSCAASGRTFWRYAMAWYRQAPGKERELVARISWRGGSTNYADSVKGRFTISRDNAKNTVYLQMNSLKPAETAVYYFNAEVLNYLVFGYQLGYDYWGQGTQGTVSS | low polyreactivity |

| Sequence | polyreactivity (PSR sort gate) |
| --- | --- |
| QVQLVESGGGLFQAGGSLRLSCAASGRTFYNNAMGWYRQAPGKERELVATINNRGGTTYYADSVKGRFTISRDNAKNTVYLQMNSLKPEDTAVYYCAKSAQRYSYRYYYWGQGTQVTVSS | high polyreactivity |
| QVQLVESGGGLFQAGGSLRLSCAASGRTFYYYAMGWYRQAPGKERELVASISRTGGPTSYADSVKGRFTISRDTAKNPVYLQMNSLKPEDTAVYYCATRRRVYSGYDYWGQGTQVTVSS | high polyreactivity |
| QVQLVESGGGLFQAGGSLRLSCAASGSIFEFNAMGWYRQAPGKERELVAGITNSGSSTYYADSVKGRLTISRDHAKNTVYLQMNSLKPEDTAVFYCNARLSRWRRRPYDYWGQGTQVTVSS | high polyreactivity |
| QVQLVESGGGLFQAGGSLRLSCAASGSNFDYNAMGWYRPAHGKERELVAAITSTDSTYADSVKGRFTISRDTAKNTVYLQMNRLKPEDTAVYYCAAEDVIYYLTGQWREYDYWGQGTQVTVSS | low polyreactivity |
| QVQLVESGGGLFQAGGSLRLSCAASGSPFSSYAIGWYRQAPGKERELVAAISYRGTRTRYADSVKGRFTISRDNAKNTVYLQMNSLKPEDTAVYDCAADRTFYGIRFDYWGQGTQVTVSS | low polyreactivity |
| QVQLVESGGGLFQAGGSLRLSCAASGSTFDTNVMGWYRQAPGKERELVAAIDVSGGSTYYADSVKGRFTISRDNAKNTVYLQMNSLKPEDTAVYYCAAEGTTWYYDMDYWGQGTQVTVSS | low polyreactivity |
| QVQLVESGGGLFQAGGSLRLSCAASGSTFGFNAMGWYRQAPGKEREFVAAINTSGGNTYYADSVKGRFTISRDNAKNTVYLQMNSLKPEDTAVYYCNAREGHLYGYPYGYWGQGTQVTVSS | low polyreactivity |
| QVQLVESGGGLFQAGGSLRLSCAASGSTFGSYAMGWYRQAPAKERELVADISSRGASTYYADSVKGRFTISRDNEKNTVYLEMISLKPEDTAVYYCNTTGEYYDYWGHGTQVTVSS | low polyreactivity |
| QVQLVESGGGLFQAGGSLRLSCAASGSTFLIYAMGWYRQAPGKERELVATIRSGGASTNYADSVKGRFTISRDNAKNTVYLQMNSLKPEDTAVYYCPARCWTWTYQSSYVYWGQGTQVTVSS | low polyreactivity |
| QVQLVESGGGLFQAGGSLRLSCAASGSTFYAYAIGWYRQAPGKERELVAAITLSGGSTYYADSVKGRFTISRDNAKNTVYLQMNSLKPEDTAVYYCAADQLRCGDYYWGQGTQVTVSS | high polyreactivity |
| QVQLVESGGGLFQAGGSLRLSCAASGYIFGSYVMGWYIQAPGKERELVAAISRRGGSTYYADSVKGRFTISRDNAKNTVYLQMNSLNPEDTAVYYCAADDGQYAKYDYWGQGTQVTVSS | high polyreactivity |
| QVQLVESGGGLFQAGGSLRLSCAASGYIFVRYAMGWYRQAPGKEREFVAAISSSGGSTRYADSVKGRFTISRDKAKYNVYLQMNSLKPEDTAVYYCAATRVARDGSPMYYWGQGTQVTVSS | high polyreactivity |
| QVQLVESGGGLFQAGGSLRLSCAPSGFTFSNYAMGWYRQAPGKEREFVAAISGTGGSTYYADSVKGRFTISRDNAKNTVYLQMNSLKPEDTEVYYCYFYFRRQYEHEYWGQGTQVTVSS | high polyreactivity |
| QVQLVESGGGLFQAGGSLRLTCAASGRIFTHYSMGWYRQPPGKEREFVAAISRSGARTYYADSVKGRFTISRDYAKNTVYLQMYSLKREVTSVYYCAKDQVDSPRDRYQKLDFWGQGTQVTVSS | low polyreactivity |
| QVQLVESGGGLFQAGGSLRVSCAASGFTFVYYAMGWYRQAPGKERELVAAITASGGSTYYADSVQGRFTISRDNAKNTVYLQMNSLKPEDSADYYCNTVRYVRHYRQSGYWGQGTQVTVSS | high polyreactivity |
| QVQLVESGGGLFQAGGSLRVSCAASGITFRDNGMVWYRQAPGKERELVAAITSGGSTYYADSVKGSCTISRDHAKNTVYFQMNSLKPEDTAVYLCAAKRIKRRGWRQLSWYDSWGQGTQVTVSS | high polyreactivity |
| QVQLVESGGGLFQAGGSLRVSSAPSGITFYGYAMGWYRQAPGKERELVAAINRGGTGTYYADSVKGRFTISRYNAKNTVYLQMNSLTPEDTAVYYCNKAGYPLADPTAGKRQFDDWGQGTEVTVSS | low polyreactivity |
| QVQLVESGGGLFQAGGSLSLSCAASGRNLSGYDMGWYRQAQGKERELVAAITRGGTTYYADSVKGRFTISRDNSKNTVYLQMNSLKADDTAVVYTVSYAQYDYWGQGTQVTVSS | low polyreactivity |
| QVQLVESGGGLGKAGGSLRLSCAASGFIFYWNAMGWYRQAPGKEREFVATITWSGGSTYYADSVKGRFTISRDYAKNTVYLQMNSLKPEDTAFYYCAAEAPVQPFYVFNSGIYELDYWGQGTQVTVSS | low polyreactivity |
| QVQLVESGGGLGKAVGSLRLSCAASGSTFEYYALGWYRLAPGTETELVAAISTAGSTYYADSVKGRFTISRDNAKYTVYLQMNSLKPEDTGVYYCAVDPSPRSYYNYYWGQGTQVTVSS | high polyreactivity |
| QVQLVESGGGLGQAGGRLRLSCAASGRTFAQNAMGWNRKAPGKERELVAAITSSGGSTYYADSVKGRFTISRDNAKNTVYLQMNSLKPEDTAVYYCAADRHYGTEYAYDYWGQGTQVTVSS | low polyreactivity |
